± gives the uncertainty stated by the source.

The values that follow come from the supplement of paper PMC12042874.

The nature of the series: amyloid nucleation score (Sup35N fusion, yeast selection) (log enrichment); library NNK3; higher = more nucleation; inactive = no reads after selection. Summed up:
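In psi-negative yeast, Sup35N fusions carrying peptides of 20 random codons were induced with 100 μM copper sulfate for 24 hours. The cells then grew 7 days at 30°C on medium lacking adenine and uracil, and plasmid inserts from input and output were Illumina-sequenced, excluding sequences with under 100 input reads. Nucleation score is the DiMSum log enrichment of output over input reads, centred on the mode score of non-aggregating sequences.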
Consider QLLLKT, for which the amyloid nucleation score result was “inactive”.
QLNGCHWCTMLSVVFCSRGV yielded an amyloid nucleation score of 2.72 ± 0.069.
Consider QLRGGVHMMHVCACGVDWWM, for which the amyloid nucleation score entry was “inactive”.
As for QLSFMEGANLRYCDFKPMIV, the amyloid nucleation score entry was “inactive”.
The value for QLSVYIYLLIQLVISRKRNT was “inactive”.
With QLTNRKCR, the amyloid nucleation score is -0.8 ± 2.5.
Regarding QMCTQLSIMI, the amyloid nucleation score result is “inactive”.
In the case of QMIRVVVFNYDQFFR, the amyloid nucleation score is 1.47 ± 0.084.
Substance QMYKYNPNLYFFSVAVNLVV returned an amyloid nucleation score of 2.18 ± 0.073.
For QNLDSMRGGIRSLLVIIRKS, the amyloid nucleation score entry was “inactive”.
In the case of QQCVTLQIYTMFKLRDYPA, the amyloid nucleation score came to 0.503 ± 0.24.
Consider QQDTNDSGYYGRVGMLVSYW, for which the amyloid nucleation score entry was “inactive”.
As for QRGVLL, the amyloid nucleation score entry is “inactive”.
As to QRKFVVAVVSATILLFNTRE, the amyloid nucleation score entry is “inactive”.
With QRLRHFAVYTMMYEAWASRC, the amyloid nucleation score entry is “inactive”.
As to QRYVLSCRALTGDTCWRKSG, the amyloid nucleation score entry is “inactive”.
In the case of QSNTLYIKFAAWSYFFSDPE it was “inactive”; in that of QSQWFGIVFMLNIMRSRDFR, 0.645 ± 0.12.
QSTIEKHDMPDRLFIVAAGS: the amyloid nucleation score entry is “inactive”.
For QTISVYYFHVLWSEGCRMYA, the amyloid nucleation score entry is “inactive”.
For the substance QTSIPGFDTTTLRVPLAFFG, the amyloid nucleation score entry is “inactive”.
Regarding QTSRT, the amyloid nucleation score entry was “inactive”.
For the substance QVDFQLCH, the amyloid nucleation score entry was “inactive”.
For the substance QVGVWRNNGYEYYRGRNLRG, the amyloid nucleation score entry was “inactive”.
In the case of QVLTFVYFHDNVMVLGWEYS it was 0.206 ± 0.78; in that of QVPYFYLSVFLFFSPCSINF, 1.74 ± 0.063.
QVRVVGHFKWYRIGTKVRDI: the amyloid nucleation score entry was “inactive”.
In the case of QVSLLYSVECMTFSFGNGDA it was 1.6 ± 0.11; in that of QVYLVIV, “inactive”; in that of QWEVR, “inactive”.
On to QWSCGFMYSFKHLGGDCYNL, for which the amyloid nucleation score result is “inactive”.
For QWTQFIELLCYCYG, the amyloid nucleation score worked out at 1.87 ± 0.11.
In the case of QWWSLVTCQAMMN it was “inactive”; in that of QYELIGSKYVQRFSFQANFS, 2.07 ± 0.074; in that of QYLWPAKFFQTLYIVGCTTP, “inactive”.
The value for QYNPLDCCNVRLKLYGPLMV was “inactive”; that for QYQCADGKDNFIL was “inactive”.
With QYVSSTFHV, the amyloid nucleation score result is “inactive”.
QYVWCGPFERYLASSVYGFS: the amyloid nucleation score entry is “inactive”.
Turning to RALTLADASGMRGINSGTMK, the amyloid nucleation score result is “inactive”.
The value for RAMCTALTSGTYRTCC was “inactive”.
In the case of RANDEEFHR it was “inactive”.
With RANLSDFYYSSSIDLKLPLT, the amyloid nucleation score entry is “inactive”.
The value for RASFLSFCFSMAGFSLFDIK was “inactive”; that for RAVNKFAVNTTKGGSHSWHS was “inactive”.
In the case of RAVRARFSKTTVFDWYAISG, the amyloid nucleation score result is “inactive”.
In the case of RAWMCIQW it was 0.382 ± 0.25.
For the substance RCFFNRMRTDVYSVDSKVSF, the amyloid nucleation score entry was “inactive”.
As for RCFSRRSCCGSVVWTVRVRH, the amyloid nucleation score entry was “inactive”.
As for RCFVPINGK, the amyloid nucleation score result was “inactive”.
The value for RCGHFLYEFL was “inactive”; that for RCKSGLNSMGRRFRYRIQQP was 0.809 ± 0.18.
For RCLRKSSIFA, the amyloid nucleation score result was “inactive”.
Regarding RCLSDCYVRNECTF, the amyloid nucleation score entry was “inactive”.
The value for RCLYTCPYADFSEPNSNLRQ was “inactive”; that for RCNPGLVCLGCTFVSRNAYS was 1.67 ± 0.081; that for RCQRVGI was “inactive”.
As for RCSHDYGLWVVDWVVSKWGC, the amyloid nucleation score result was “inactive”.
Regarding RCTHYMNRQMVLHVCMYVSY, the amyloid nucleation score result is “inactive”.
With RCVIALMLYVILGMNGWKAS, the amyloid nucleation score entry was “inactive”.
Substance RDCICSRYIYGLRLSVLIWN came in with an amyloid nucleation score of -0.44 ± 0.66.
The value for RDKKNNRVYFGGYSLGTWSC was “inactive”; that for RDLWNGFSLGA was “inactive”.
In the case of RDNVFCVDVDICILVVR, the amyloid nucleation score result was “inactive”.
For the substance RDPWFLSMVVDLFGYLNWVM, the amyloid nucleation score was 0.338 ± 0.18.
RDYFAYNCMVWMGTIQLYPG: the amyloid nucleation score was 1.83 ± 0.056.
For REGFVIIVLTWLMDSQYST, the amyloid nucleation score result is “inactive”.
For REGLRYLMVRSIIFSHIFCN, the amyloid nucleation score result was “inactive”.
Turning to REHLLDHTRLYC, the amyloid nucleation score result is “inactive”.
In the case of RELNQFSPRAENWWYSSHSV, the amyloid nucleation score entry was “inactive”.
For RENSKFFLIRC, the amyloid nucleation score entry was “inactive”.
In the case of RENTNSFGVNCGTQFGRISL it was 1.56 ± 0.099.
Take REYRIFLVPCFSISDRGGSW: the amyloid nucleation score entry was “inactive”.
With RFFNFPGNLKLSHVDLIAIW, the amyloid nucleation score is 0.214 ± 0.64.
Regarding RFGFS, the amyloid nucleation score result is “inactive”.
Turning to RFGGVLVVFGEWNDVVREAV, the amyloid nucleation score entry was “inactive”.
In the case of RFIISCQRYVETTT it was “inactive”.
For the substance RFIVHIYNMN, the amyloid nucleation score was 2.59 ± 0.059.
Consider RFKTF, for which the amyloid nucleation score result was “inactive”.
Regarding RFLDRTLIGYVCGKRRSPSS, the amyloid nucleation score result is “inactive”.
In the case of RFNCHRMCEHGDTLDMSYN it was “inactive”; in that of RFNMSFYQSYITSHCLVR, “inactive”.
The value for RFQFEGREFCLGMLDFNSWI was “inactive”; that for RFRKG was “inactive”; that for RFRVLTYIISYSFSFCHHVW was 0.356 ± 0.27.
Turning to RFSRTDGRLWSCKTCQ, the amyloid nucleation score entry was “inactive”.
On to RFVGVATTSFLTVTFGLVCE, for which the amyloid nucleation score entry is “inactive”.
RFYLDLEQQHLEIVGESR: the amyloid nucleation score entry is “inactive”.
In the case of RFYLIKPAI, the amyloid nucleation score result is “inactive”.
RGAVCVNFTSRWSWGIGEHH displayed an amyloid nucleation score of 1.33 ± 0.11.
The value for RGCCKRPDGSKLVFIQMLIS was “inactive”; that for RGDSRFP was 0.08 ± 0.88.
For RGDVLRFTWCSEPGCQRRTT, the amyloid nucleation score result was “inactive”.
In turn, RGFICIGTLYLLAPVFCARS displayed an amyloid nucleation score of 2.85 ± 0.062.
In the case of RGILFLV it was “inactive”; in that of RGKSLFLINTDM, -0.148 ± 0.7.
For RGLLEANMLGSSGDPSVNSG, the amyloid nucleation score result was “inactive”.
The value for RGPSAPNFWE was “inactive”; that for RGRRSCRARRYTTGAFHELL was “inactive”.
The substance RGSDEDGYLG came in with an amyloid nucleation score of 0.003 ± 0.7.
For RHDVSSGSYGGRSGAGSPAQ, the amyloid nucleation score entry was “inactive”.
In the case of RHGKIAAS it was “inactive”; in that of RHISRRRLREVGVCRLKVML, “inactive”; in that of RHKWLFMWGCFHFNKCASH, “inactive”.
RHLIAFVVNNSFLVDYDSIS: the amyloid nucleation score entry was “inactive”.
In the case of RHRASGLFP, the amyloid nucleation score result is “inactive”.
In turn, RHWIWLMQWKD gave an amyloid nucleation score of 1.11 ± 0.14.
For RICMRLVNMTLMCQISGVLG, the amyloid nucleation score entry is “inactive”.
The value for RICRYGAIDLMGVP was “inactive”; that for RIDIGY was 0.612 ± 0.17.
The value for RIETYCVRGILAIE was “inactive”; that for RIFFGISVIQFLIRSYSVHR was “inactive”; that for RIHSYAYPCQFFRLDYGGGQ was 0.703 ± 0.13.
Consider RILVGLNCS, for which the amyloid nucleation score result was “inactive”.
On to RISRNGCGCGILYVIIRN, for which the amyloid nucleation score result was “inactive”.
Turning to RIVGEYSLKGCEVNVSWVKS, the amyloid nucleation score result was “inactive”.
In the case of RIVMPLSVSFMPQVKHPMYR it was “inactive”; in that of RIYSDGRSSFSRQLVWVCSR, “inactive”; in that of RKDVSCSPLLNCETVSVQ, “inactive”.
In the case of RKIETLWVYIYRLFRLGEQV, the amyloid nucleation score entry is “inactive”.
As to RKKRY, the amyloid nucleation score result was “inactive”.
Take RKLFKKTFYLAPRL: the amyloid nucleation score entry was “inactive”.
In the case of RKQRNWCTTPVVRFRVYGYA it was “inactive”; in that of RKRAGVMGTLSN, “inactive”.
For the substance RKVIPCH, the amyloid nucleation score entry was “inactive”.
RLATHCKHNASCQQSFYRE: the amyloid nucleation score result is “inactive”.
The value for RLDPLVDFANDLMTSYSR was “inactive”; that for RLEFKESRMGLLVLGDN was “inactive”; that for RLFKSGEFDFCYIRGHCCSV was “inactive”.
Take RLFSWNIYLWLL: the amyloid nucleation score was determined as 1.48 ± 0.081.
On to RLFYTRIDSTCIWLVLYAEK, for which the amyloid nucleation score result is “inactive”.
As to RLGNTGMCV, the amyloid nucleation score result is “inactive”.
Regarding RLGTM, the amyloid nucleation score result was “inactive”.
